Assay results as given in US20230054375A1 (UAB RESEARCH FOUNDATION, published 2023).

Molecular target: CD47 receptor (plate-coated and soluble antigen of the affinity ELISA) (UniProt Q08722 19-141, limits assumed)
Assay: ELISA of equilibrated mAb/receptor mixtures on CD47-coated plate (Friguet method)
Experimental: Briefly, the 96-well plate was coated with 200 ng of CD47 receptor in 100 μL of coating buffer (50 mM carbonate-bicarbonate buffer, pH 9.6) and incubated at 4° C. overnight. The plate was washed three times with PBS containing 0.05% Tween 20, and blocked with 2% BSA (bovine serum albumin). […] After incubating at 37° C. for 1 hr, 100 μL of HRP goat anti-mouse IgG secondary antibody (Abcam, Cambridge, Mass.) at concentration of 50 ng/mL was added to each well and incubated at 37° C. for 1 hr, followed with TMB substrate for color development. The reaction was stopped by adding 100 μL of 1M sulfuric acid. The absorbance was recorded with BioTek plate reader at a wavelength of 450 nm.

Chain of CD47 receptor (plate-coated and soluble antigen of the affinity ELISA) (Q08722 19-141 limits assumed): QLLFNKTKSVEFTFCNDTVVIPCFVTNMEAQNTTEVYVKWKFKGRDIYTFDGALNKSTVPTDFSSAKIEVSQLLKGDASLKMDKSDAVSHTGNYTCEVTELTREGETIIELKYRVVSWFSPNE

B1: anti-CD47 monoclonal antibody (IgG2b/kappa) (antibody, V domains shown)
VH: EVQLVESGGGLVQPKGSLKLSCAASGFTFNTYAMNWVRQAPGKGLEWIARIRSKSNNYATYYADSMKDRFTISRDDSQSMLYLQMNNLKTEDTAMYYCVRPAQGAMDYWGHGTSVTVSS
VL: DIVLTQSPATLSVTPGDSVSLSCRASQRISNNLHWYQQKSHESPRLLIKYSSQSISGIPSRFSGSGSGTDFTLSINSVETEDFGMYFCQQSNAWPYTFGGGTKLEIRR
notes: The antibody was labelled with Alexa Fluor 647 for flow cytometry and confocal imaging; also called anti-CD47 mAb; CD47 mAb
- Kd: 2.3 nM
